Source: US20220298478A1

Molecular target: full length mesothelin (NM_005823) on target cells (human) (UniProt Q13421)
Test: cell-based or functional assay

Chain of full length mesothelin (NM_005823) on target cells (human) (Q13421 other isoform, or with tags, fused parts or gaps limits assumed): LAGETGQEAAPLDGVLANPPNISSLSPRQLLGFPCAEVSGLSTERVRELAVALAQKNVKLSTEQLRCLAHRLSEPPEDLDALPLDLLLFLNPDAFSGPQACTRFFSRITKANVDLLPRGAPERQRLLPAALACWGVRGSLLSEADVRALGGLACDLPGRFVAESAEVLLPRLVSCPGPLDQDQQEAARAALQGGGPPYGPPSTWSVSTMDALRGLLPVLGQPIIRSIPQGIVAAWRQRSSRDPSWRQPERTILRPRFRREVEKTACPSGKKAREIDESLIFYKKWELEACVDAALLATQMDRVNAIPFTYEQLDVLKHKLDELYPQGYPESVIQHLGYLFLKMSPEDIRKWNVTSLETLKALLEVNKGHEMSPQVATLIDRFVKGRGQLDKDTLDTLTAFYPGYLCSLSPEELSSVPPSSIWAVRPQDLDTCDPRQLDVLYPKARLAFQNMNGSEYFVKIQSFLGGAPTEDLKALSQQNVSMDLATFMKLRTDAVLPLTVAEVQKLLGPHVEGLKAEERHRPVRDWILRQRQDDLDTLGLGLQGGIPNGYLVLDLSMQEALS

tumor cell lysis (luciferase assay), E:T 1-to-1, patients 1, 2, 4 and 5: 50%
tumor cell lysis (luciferase assay), E:T 1-to-5, patients 4 and 5: 50%
tumor cell lysis (luciferase assay), E:T 5-to-1, patient 3: 35%
tumor cell lysis (luciferase assay), E:T 5-to-1, patients 1, 2, 4 and 5: 75 to 97%
B1: SD1 CD3ε-TFP (protein, part only; not given: linker and CD3 epsilon subunit, part only)
chain, part: EVQLVESGGGLVQPGGSLRLSCAASGGDWSANFMYWYRQAPGKQRELVARISGRGVVDYVESVKGRFTISRDNSKNTLYLQMNSLRAEDTAVYYCAVASYWGQGTLVTVSS
